Measured values from US12043671B2, “Antibodies targeting an amphiregulin-derived cell surface neo-epitope” (Gundersen Lutheran Medical Foundation, Inc., priority 2021, dated 2024).

How the values were obtained:
[1] = target: T1, peptide representing the neo-epitope of the ADAM17-cleavage product of human AREG (Homo sapiens, UniProt P15514); assay: ELISA of rabbit IgG candidates against peptides representing cleaved and full length AREG; assay type: binding
T1 construct: host or cells: synthetic peptide
Text: FIGS. 1A-1C. Isolation of antibodies that selectively recognize a peptide representing cleaved AREG. FIG. 1A: Schematic representation of the AREG cleavage and EGFR activation process, one consequence of which is the internalization of the small transmembrane fragment that remains cell-associated after TACE/ADAM17-mediated cleavage. FIG. 1B: Schematic representation of phage panning strategy using a peptide representing the cleaved AREG neo-epitope adhered to the well and a peptide representing the non-cleaved AREG region in the liquid phase.
Rabbit monoclonal IgG antibodies specific to cleaved-AREG were identified in contracted screening (Oak Biosciences Inc., Sunnyvale, CA, USA) using a recombinant Rabbit naïve phage display library (scFv format, VK-linker-VH) screening platform after four rounds of panning and ELISA validation. For panning, phage was selected against a peptide modeling the ADAM17-cleaved cell-associated epitope of AREG,^12 represented by the N-terminal region of THSMIDSSLSKI (SEQ ID NO: 2), and counter-selected against a peptide spanning this region (SMKTHSMIDSSLSKIAC; SEQ ID NO: 9), representing uncleaved AREG. […] GMF-1A3, referred to hereafter as simply “1A3”, was the antibody chosen for further characterization in this Example.

cleaved-AREG peptide = target: T2, cleaved-AREG peptide (Homo sapiens, UniProt P15514); assay: ELISA binding of 1A3 and 1A3-VC-PAB-MMAE to cleaved-AREG peptide; conditions: 0.001-1 μg/mL
T2 construct: host or cells: synthetic peptide
Description: Maxisorp flat bottom 96-well plates (Thermo Fisher Scientific) were coated with 5 μg/mL cleaved-AREG peptide at 4° C. overnight. After washing thrice with PBST (PBS with 0.05% Tween20) and blocking for 2 h at RT with 5% non-fat dry milk in PBST, various concentrations of 1A3 and 1A3-VC-PAB-MMAE (0.001, 0.01, 0.1, 1 μg/mL) were added to the wells and incubated for 2 h at RT. The wells were washed four times with PBST and were incubated at RT with Goat anti-rabbit IgG (H+L) Cross-adsorbed-HRP conjugate secondary Ab (ThermoFisher G-21234) for 1 h. One-Step™ Turbo™ B-ELISA Substrate Solution (Thermo Fisher Scientific) was added to the wells for color development, incubated for 15 min and the reaction was stopped by adding 2 M H2SO4.

[2] = target: T3, FL AREG (peptide representing uncleaved AREG) (Homo sapiens, UniProt P15514); assay: Immunoblot of TRF-conjugated AREG peptides, intact cleavage site; assay type: binding; conditions: 1 μg/mL antibody, 200 ng TRF-conjugated peptide
T3 construct: a peptide spanning this region (SMKTHSMIDSSLSKIAC); host or cells: synthetic peptide conjugated to transferrin
Description: Monomethyl auristatin E (MMAE) conjugated 1A3 antibody (1A3-VC-PAB-MMAE) was prepared using a kit (CM11409) from CellMosaic Inc. (Woburn, MA, USA) following the manufacturer's instructions. Maleimide-activated valine-citrulline p-aminobenzylcarbamate (VCPAB) MMAE was coupled directly to the antibody after reduction through alkylation.^13 The specificity of 1A3 and 1A3-VC-PAB-MMAE to peptides representing human cleaved-AREG was confirmed by immunoblotting. Briefly, transferrin (TRF) conjugated peptides representing cleaved and uncleaved AREG (200 ng) were electrophoresed on SDS-PAGE gels, transferred to PVDF membrane and probed with 1 μg/mL of 1A3 and 1A3-VC-PAB-MMAE. Horseradish peroxidase-conjugated goat anti-rabbit IgG was used. Antibody binding was detected with enhanced chemiluminescence (ECL; Amersham, Arlington Heights, IL, USA). Furthermore, the characterization and purity of 1A3-VC-PAB-MMAE were analyzed using hydrophobic interaction chromatography (HIC) and size-exclusion chromatography (Cell Mosaic).

MCF-7 cells = assay: Tubulin staining (microtubule integrity); assay type: cell-based, human; conditions: 48 h treatment
Description: FIGS. 4A-4E. In vitro 1A3-MMAE cytotoxicity in MCF-7 (FIG. 4A) and MCF-7F (FIG. 4B) cells measured by MTT assay after treatment with 1A3-MMAE, 1A3 or MMAE. FIG. 4C: Clonogenic growth of MCF-7 or MCF-7F cells after exposure to 1A3-MMAE and replating. FIG. 4D: The quantification of clonogenic growth assays in FIG. 4C. (FIG. 4E). Tubulin staining of MCF-7 cells after 48 h treatment with MMAE, 1A3, 1A3-MMAE (40× magnification).

MCF7-F xenografts = assay: Orthotopic MCF7-F endocrine-resistant xenograft in NSG mice; assay type: in vivo, mouse
Text: In Vivo Antitumor Activity Studies: The animal experiments were approved by the Institutional Animal Care and Use Committee of University of Wisconsin La Crosse (La Crosse, Wisconsin, USA). Four-week-old female NOD.Cg-Prkdc^scid II2rg^tm1Wjl/SzJ mice (NSG; The Jackson Laboratory) were acclimated for 1 week before the experiments. For MCF7 breast cancer xenograft model, the mice were implanted subcutaneously with 0.72-mg 17β-estradiol 90-day release tablets (Innovative Research of America) 3 days prior to cell injection. […] Firefly luciferase expressing MCF7 and MCF7-F cells (2×10^6 cells in a 1:1 mixture of serum-free DMEM and Matrigel) were injected orthotopically into the fourth inguinal mammary fat pad of each mouse. Once the tumors were well established, each cell line cohort was divided into three groups (n=5). Mean tumor volume at the start of treatment was 111 mm^3 for the MCF7 cohorts and 119 mm^3 for the MCF7-F cohorts. The mice were treated by intraperitoneal injection every 4 days for a total of six doses with unconjugated or MMAE conjugated anti-cleaved-AREG 1A3 antibody (5 mg/kg), or vehicle control (PBS). Tumor volumes were calculated from caliper data by using the formula: Volume (mm^3)=(Length×Width^2)/2. Mice were imaged weekly with the in vivo FX PRO imaging system (Carestream Molecular Imaging, Woodbridge, CA, USA) after injecting luciferin (150 mg/kg body weight). Tumor volume and body weight were monitored once a week. Statistical Analysis:
To test in vivo efficacy of 1A3-MMAE, human breast cancer cell lines expressing luciferase were injected orthotopically into NSG mice (one tumor in each inguinal mammary gland). Once the average tumor size reached approximately 100-125 mm^3, mice were randomized to one of three treatment groups: PBS, 1A3 (5 mg/kg) or 1A3-MMAE (5 mg/kg). Mice received intraperitoneal injections every 4 days for six total injections and were monitored for tumor progression or regression. Similar experiments were performed with MCF7 (FIGS. 5A, 5B, and 5C, left panels) and MCF7-F (FIGS. 5A, 5B, and 5C, right panels) xenografts.

binding ratio of cleaved AREG to intact AREG as determined by ELISA ([1]; compared among the three antibodies): highest binding ratio
binding to cleaved AREG peptide, unconjugated vs MMAE-conjugated (cleaved-AREG peptide): no substantial difference in binding
reaction with peptide representing uncleaved AREG by immunoblot [2]: did not react
B1: 1A3: Rabbit monoclonal IgG specific to cleaved AREG; VH SEQ ID NO: 3, VL SEQ ID NO: 4 (antibody, V domains shown)
VH: QSVKESEGRLVTPGTPLRLTCTVAGYSLSRYHMCWVRQAPGKGLEWIGMIGGSGRTDYASWAKGRFTISKTSTTVDLKITSPTTEDTATYFCSTVYTDSDGDFWGPGTLVTVSS
VL: AELDMTQTPSSKSVPVGGTVTINCQASESVYSNDRLAWFQQKPGQPPKLLIYYASTLASGVPSRFKGSGSGTQFTLTISDLECADAATYYCQSCYDMSSYGVAFGGGTELEIL
modifications: 1A3 antibody, Heavy chain; 1A3 antibody, Light chain
selectivity for cleaved AREG by ELISA ([1]; IgG format, cleaved vs uncleaved AREG peptide): selectivity for cleaved AREG was confirmed
tubulin disruption (microtubule integrity) (MCF-7 cells): did not
longitudinal luciferase imaging of xenografts (MCF7-F xenografts; 5 mg/kg): exhibited tumor growth
tumor volume response by caliper measurements (MCF7-F xenografts; 5 mg/kg i.p. every 4 days, six doses): continued, sometimes rapid increases in tumor volume
